The chains are these.
B1: Integrin beta-3 (Homo sapiens), P05106 (parent)
chain: MRARPRPRPLWATVLALGALAGVGVGGPNICTTRGVSSCQQCLAVSPMCAWCSDEALPLGSPRCDLKENLLKDNCAPESIEFPVSEARVLEDRPLSDKGSGDSSQVTQVSPQRIALRLRPDDSKNFSIQVRQVEDYPVDIYYLMDLSYSMKDDLWSIQNLGTKLATQMRKLTSNLRIGFGAFVDKPVSPYMYISPPEALENPCYDMKTTCLPMFGYKHVLTLTDQVTRFNEEVKKQSVSRNRDAPEGGFDAIMQATVCDEKIGWRNDASHLLVFTTDAKTHIALDGRLAGIVQPNDGQCHVGSDNHYSASTTMDYPSLGLMTEKLSQKNINLIFAVTENVVNLYQNYSELIPGTTVGVLSMDSSNVLQLIVDAYGKIRSKVELEVRDLPEELSLSFNATCLNNEVIPGLKSCMGLKIGDTVSFSIEAKVRGCPQEKEKSFTIKPVGFKDSLIVQVTFDCDCACQAQAEPNSHRCNNGNGTFECGVCRCGPGWLGSQCECSEEDYRPSQQDECSPREGQPVCSQRGECLCGQCVCHSSDFGKITGKYCECDDFSCVRYKGEMCSGHGQCSCGDCLCDSDWTGYYCNCTTRTDTCMSSNGLLCSGRGKCECGSCVCIQPGSYGDTCEKCPTCPDACTFKKECVECKKFDRGALHDENTCNRYCRDEIESVKELKDTGKDAVNCTYKNEDDCVVRFQYYEDSSGKSILYVVEEPECPKGPDILVVLLSVMGAILLIGLAALLIWKLLITIHDRKEFAKFEEERARAKWDTANNPLYKEATSTFTNITYRGT

Results on 4 variants are retold here after IntAct's records for PubMed 19279667.

The variants in one assay derive from B1. To be noted: with ita2b_human ITGA2B.
Consider D749A, for which the “effect of a mutation on the interaction” value is on record as “decreasing interaction”.

The variants in a further assay derive from B1. As to conditions: with ita2b_human ITGA2B. The source holds these as a separate data set.
On to L738A, for which the “effect of a mutation on the interaction” value was “decreasing interaction”.

In the next assay the parent is B1. To be noted: with ita2b_human ITGA2B. The source holds these as a separate data set.
In the case of W741Y, the “effect of a mutation on the interaction” value is “decreasing interaction”.

Another assay covers variants of B1. As to conditions: with ita2b_human ITGA2B. The source holds these as a separate data set.
In the case of I719A, the “effect of a mutation on the interaction” value is listed as “decreasing interaction”.
